Source: publication PMC2677547

Molecular target: Coxsackievirus and adenovirus receptor (CAR), endogenous on rat spinal cord motor neurons (rat (endogenous in spinal cord motor neurons)) (UniProt Q9R066)
Chain of UniProt Q9R066 (Q9R066 20-365): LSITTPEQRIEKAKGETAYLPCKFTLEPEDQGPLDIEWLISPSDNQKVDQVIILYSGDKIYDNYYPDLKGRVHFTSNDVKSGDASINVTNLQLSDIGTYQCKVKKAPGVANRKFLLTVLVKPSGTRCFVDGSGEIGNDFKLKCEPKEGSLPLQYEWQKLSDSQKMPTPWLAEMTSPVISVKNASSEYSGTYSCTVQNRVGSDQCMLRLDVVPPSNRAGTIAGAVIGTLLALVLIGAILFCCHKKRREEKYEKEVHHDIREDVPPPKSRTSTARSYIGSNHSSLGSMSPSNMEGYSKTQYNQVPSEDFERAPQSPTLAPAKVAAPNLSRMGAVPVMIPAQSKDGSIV

## CAV-2 fibre knob, unlabelled recombinant (FK) (domain or fragment)
  CAV-2 virion uptake in MNs after pre-incubation with saturating concentrations of recombinant FK (blocks CAV-2 virion with CAR): 76%
